Key:
[1] = target: ClpXP (sc6ClpXΔN-bio with ClpP; ATP site on ClpX) (Escherichia coli, UniProt P0A6H1, C169S/K408E); test: bio-layer interferometry, ClpP association to immobilised ClpX; format: binding
[2] = system: Nc1ncnc2c1ncn2[C@@H]1O[C@H](COP(=O)(O)OP(=O)(O)OP(=O)(O)O)[C@@H](O)[C@H]1O; test: coupled ATP hydrolysis assay; format: biochemical, Escherichia coli; details: pH 7.5
[3] = system: ^sc6ClpX^ΔN-bio single-chain ClpX^ΔN pseudohexamer; test: BLI
[4] = target: ^sc6ClpX^ΔN-bio single-chain ClpX^ΔN pseudohexamer (E. coli); test: BLI
[5] = excess ClpP (1 μM), Hill n = 2.2, 10 mM MgCl2, 30 °C
[6] = no ClpP, Hill n = 2.4, 10 mM MgCl2, 30 °C

Nc1ncnc2c1ncn2[C@@H]1O[C@H](COP(=O)(O)OP(=O)(O)OP(=O)(O)O)[C@@H](O)[C@H]1O [ATP]
EC50 [1]: 100 ± 2 µM

ClpXP (sc6ClpXΔN-bio with ClpP; ATP site on ClpX) (Escherichia coli K-12; C169S/K408E)
K0.5 [2, 5]: 29 µM
kcat [2, 5]: 41 min^−1 enz^−1

E. coli ClpP (C91V, C113A)
kobs of association at 200 nM ClpP, maximal fitted value against ATP [3]: 0.138 ± 0.001 s^−1 for kobs
maximal rate of kobs-1 (double-exponential association, amplitude ~70%) [3]: the maximal rate was 22 ± 7 s^−1
maximal rate of kobs-2 (double-exponential association, amplitude ~30%) [3]: the maximal rate was 0.54 ± 0.2 s^−1

E. coli ClpP (C91V, C113A) (enzyme)
Kd [4]: < 0.0001 µM
dissociation rate constant in the absence of nucleotide or presence of ADP [4]: < 0.07 s⁻¹
fold more kinetically stable in 7:1 ADP:ATP against ADP alone [4]: 100 fold
half-life of ADEP-2B-induced dissociation [4]: 1 s
half-life of dissociation in ADP (complex formed with ATP) [4]: 5 s
half-life of dissociation in ADP (complex formed with ATPγS) [4]: 20 s
half-maximal binding, total ClpP concentration [4]: 160 pM
maximum dissociation rate constant with ADEP-2B (hyperbolic fit) [4]: 2 s⁻¹

sc6ClpXΔN-bio (Escherichia coli K-12; C169S/K408E)
K0.5 [2, 6]: 42 ± 3 µM
kcat [2, 6]: 73 min^−1 enz^−1

Source: article PMC5087277 (ACS chemical biology, 2016)
